One data set concerns the target EPHB1 (UniProt P54762). As to the kind of experiment: phosphorylation enrichment, bacterial display (enrichment ratio); higher = better substrate or ligand; peptides without Tyr show the background.
Another data set concerns AncSZ. The data set is described as above.
The test system of a further data set is c-Src. The data set is described as above.
The target of a further data set is EPHB2 (UniProt P29323). The data set is described as above.
In the next data set the target is Hck (UniProt P08631). The data set is described as above.
In the next data set the test system is Fer (mouse). The description is as above.
Another data set concerns the target MERTK (UniProt Q12866). Described as above.
The next data set deals with FGFR1 (UniProt P11362). Described as above.
FGFR1, sequence (P11362 whole entry, looked up): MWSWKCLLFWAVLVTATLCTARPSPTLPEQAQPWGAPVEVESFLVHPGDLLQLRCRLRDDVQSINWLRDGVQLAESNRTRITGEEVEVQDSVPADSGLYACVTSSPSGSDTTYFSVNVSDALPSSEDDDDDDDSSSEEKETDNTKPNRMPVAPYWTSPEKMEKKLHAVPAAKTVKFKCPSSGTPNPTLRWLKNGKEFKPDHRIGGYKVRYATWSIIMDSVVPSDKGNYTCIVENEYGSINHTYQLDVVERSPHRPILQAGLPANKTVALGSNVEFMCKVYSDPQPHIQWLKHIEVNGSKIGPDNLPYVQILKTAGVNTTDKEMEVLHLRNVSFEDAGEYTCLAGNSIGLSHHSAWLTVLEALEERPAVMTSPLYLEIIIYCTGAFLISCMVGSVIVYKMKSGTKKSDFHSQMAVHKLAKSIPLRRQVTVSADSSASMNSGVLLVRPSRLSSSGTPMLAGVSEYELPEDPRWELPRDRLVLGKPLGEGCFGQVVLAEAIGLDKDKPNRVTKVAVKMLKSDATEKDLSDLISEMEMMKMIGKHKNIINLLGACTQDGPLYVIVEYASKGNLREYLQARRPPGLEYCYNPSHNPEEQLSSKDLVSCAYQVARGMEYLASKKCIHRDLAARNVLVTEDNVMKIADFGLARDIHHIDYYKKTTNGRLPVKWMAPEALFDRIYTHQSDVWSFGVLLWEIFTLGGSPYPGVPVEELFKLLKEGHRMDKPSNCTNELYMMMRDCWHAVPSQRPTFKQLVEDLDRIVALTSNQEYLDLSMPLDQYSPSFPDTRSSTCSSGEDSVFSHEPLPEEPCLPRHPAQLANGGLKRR
A further data set relates to c-Abl (mouse). The data set is described as above.
The next data set addresses Fes (UniProt P07332). Described as above.
A further data set concerns the target FGFR3 (UniProt P22607). Described as above.
For a further data set, the target named is Jak2 (UniProt O60674). The data set is described as above.
The target of a further data set is Fyn (UniProt P06241). Described as above.
Fyn, sequence (P06241 whole entry, looked up): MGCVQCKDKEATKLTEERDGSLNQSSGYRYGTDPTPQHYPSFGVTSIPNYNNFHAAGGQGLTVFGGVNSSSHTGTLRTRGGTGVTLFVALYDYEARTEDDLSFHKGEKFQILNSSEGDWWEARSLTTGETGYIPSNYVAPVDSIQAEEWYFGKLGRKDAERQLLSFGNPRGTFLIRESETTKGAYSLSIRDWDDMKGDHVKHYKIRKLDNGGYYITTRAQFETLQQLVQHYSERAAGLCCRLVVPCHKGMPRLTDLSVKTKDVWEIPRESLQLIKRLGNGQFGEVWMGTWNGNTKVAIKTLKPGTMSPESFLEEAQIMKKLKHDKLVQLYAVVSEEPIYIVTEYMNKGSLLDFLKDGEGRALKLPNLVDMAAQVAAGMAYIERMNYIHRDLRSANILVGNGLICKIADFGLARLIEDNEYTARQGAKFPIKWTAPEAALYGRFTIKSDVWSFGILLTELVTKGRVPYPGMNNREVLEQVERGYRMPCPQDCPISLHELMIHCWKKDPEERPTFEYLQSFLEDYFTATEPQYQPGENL
For the next data set, the target named is c-Src SH2. As to the kind of experiment: SH2 binding enrichment of the phosphorylated peptide, bacterial display (enrichment ratio); higher = better substrate or ligand; peptides without Tyr show the background.
Another data set addresses SHP2-C SH2. The data set is described as above.
The next data set addresses Grb2 SH2 (UniProt P62993). The data set is described as above.

Our source for the phosphorylation enrichment and SH2 binding enrichment values is the supplement of paper PMC10065799, “High-throughput profiling of sequence recognition by tyrosine kinases and SH2 domains using bacterial peptide display” (eLife, 2023).
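Wherever SH2 binding enrichment of the phosphorylated peptide, bacterial display is given: peptide library displayed on the E. coli surface as eCPX fusions, selected cells deep-sequenced, score is each peptide's frequency after selection divided by its frequency in the input.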
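Wherever phosphorylation enrichment, bacterial display is given: 11-residue human phosphosite peptides and single-mutation variants displayed on the E. coli surface, counted by deep sequencing, each peptide's frequency after selection divided by its frequency in the unselected input library; frequency after pTyr selection over input frequency; kinase dosed for 20-30% of maximal phosphorylation in three min.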

EPHB1, sequence (P54762 whole entry, looked up): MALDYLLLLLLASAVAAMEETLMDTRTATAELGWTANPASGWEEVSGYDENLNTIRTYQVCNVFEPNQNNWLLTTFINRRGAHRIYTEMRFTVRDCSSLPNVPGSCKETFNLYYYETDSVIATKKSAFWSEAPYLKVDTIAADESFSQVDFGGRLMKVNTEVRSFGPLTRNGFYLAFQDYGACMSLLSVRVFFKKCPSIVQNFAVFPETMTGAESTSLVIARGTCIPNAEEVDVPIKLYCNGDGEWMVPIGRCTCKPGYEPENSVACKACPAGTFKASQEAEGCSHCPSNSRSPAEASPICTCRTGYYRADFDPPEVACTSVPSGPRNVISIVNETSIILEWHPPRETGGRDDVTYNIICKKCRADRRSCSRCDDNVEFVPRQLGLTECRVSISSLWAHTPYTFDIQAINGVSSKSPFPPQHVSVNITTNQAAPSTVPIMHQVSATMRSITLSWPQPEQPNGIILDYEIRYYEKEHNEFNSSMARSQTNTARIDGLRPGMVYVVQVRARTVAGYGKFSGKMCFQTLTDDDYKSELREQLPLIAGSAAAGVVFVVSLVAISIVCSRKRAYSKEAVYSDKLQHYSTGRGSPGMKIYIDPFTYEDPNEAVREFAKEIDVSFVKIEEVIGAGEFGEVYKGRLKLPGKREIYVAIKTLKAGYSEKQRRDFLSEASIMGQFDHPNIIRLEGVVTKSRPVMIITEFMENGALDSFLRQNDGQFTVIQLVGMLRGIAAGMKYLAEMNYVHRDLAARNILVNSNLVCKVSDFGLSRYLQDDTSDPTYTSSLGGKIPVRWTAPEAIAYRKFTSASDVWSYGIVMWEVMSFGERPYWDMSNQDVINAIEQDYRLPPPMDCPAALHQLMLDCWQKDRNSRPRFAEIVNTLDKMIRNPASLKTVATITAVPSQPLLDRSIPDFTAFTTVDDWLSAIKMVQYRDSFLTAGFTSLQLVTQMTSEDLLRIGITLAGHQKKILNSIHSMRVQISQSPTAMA
Fes, sequence (P07332 whole entry, looked up): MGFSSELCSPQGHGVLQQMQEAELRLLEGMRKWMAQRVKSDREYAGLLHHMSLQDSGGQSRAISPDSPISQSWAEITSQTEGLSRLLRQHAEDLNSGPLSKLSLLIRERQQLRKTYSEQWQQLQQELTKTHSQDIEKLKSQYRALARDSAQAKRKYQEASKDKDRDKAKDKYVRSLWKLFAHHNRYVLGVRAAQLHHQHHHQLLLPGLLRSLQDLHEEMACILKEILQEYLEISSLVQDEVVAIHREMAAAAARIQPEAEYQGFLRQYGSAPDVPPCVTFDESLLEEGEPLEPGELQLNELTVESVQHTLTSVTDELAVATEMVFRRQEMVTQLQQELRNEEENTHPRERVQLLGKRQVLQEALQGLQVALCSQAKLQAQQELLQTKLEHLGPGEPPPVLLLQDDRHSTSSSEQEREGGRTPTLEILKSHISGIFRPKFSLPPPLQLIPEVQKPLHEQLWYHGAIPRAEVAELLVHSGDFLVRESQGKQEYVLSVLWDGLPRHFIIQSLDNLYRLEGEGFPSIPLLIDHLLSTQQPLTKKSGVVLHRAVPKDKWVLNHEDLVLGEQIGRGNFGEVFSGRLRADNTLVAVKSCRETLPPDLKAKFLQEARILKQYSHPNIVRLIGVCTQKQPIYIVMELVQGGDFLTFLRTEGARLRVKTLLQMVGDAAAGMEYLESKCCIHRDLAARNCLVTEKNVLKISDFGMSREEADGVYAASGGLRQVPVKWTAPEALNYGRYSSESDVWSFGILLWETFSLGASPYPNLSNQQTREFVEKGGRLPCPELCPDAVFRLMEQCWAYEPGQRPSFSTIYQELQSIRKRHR
EPHB2, sequence (P29323 whole entry, looked up): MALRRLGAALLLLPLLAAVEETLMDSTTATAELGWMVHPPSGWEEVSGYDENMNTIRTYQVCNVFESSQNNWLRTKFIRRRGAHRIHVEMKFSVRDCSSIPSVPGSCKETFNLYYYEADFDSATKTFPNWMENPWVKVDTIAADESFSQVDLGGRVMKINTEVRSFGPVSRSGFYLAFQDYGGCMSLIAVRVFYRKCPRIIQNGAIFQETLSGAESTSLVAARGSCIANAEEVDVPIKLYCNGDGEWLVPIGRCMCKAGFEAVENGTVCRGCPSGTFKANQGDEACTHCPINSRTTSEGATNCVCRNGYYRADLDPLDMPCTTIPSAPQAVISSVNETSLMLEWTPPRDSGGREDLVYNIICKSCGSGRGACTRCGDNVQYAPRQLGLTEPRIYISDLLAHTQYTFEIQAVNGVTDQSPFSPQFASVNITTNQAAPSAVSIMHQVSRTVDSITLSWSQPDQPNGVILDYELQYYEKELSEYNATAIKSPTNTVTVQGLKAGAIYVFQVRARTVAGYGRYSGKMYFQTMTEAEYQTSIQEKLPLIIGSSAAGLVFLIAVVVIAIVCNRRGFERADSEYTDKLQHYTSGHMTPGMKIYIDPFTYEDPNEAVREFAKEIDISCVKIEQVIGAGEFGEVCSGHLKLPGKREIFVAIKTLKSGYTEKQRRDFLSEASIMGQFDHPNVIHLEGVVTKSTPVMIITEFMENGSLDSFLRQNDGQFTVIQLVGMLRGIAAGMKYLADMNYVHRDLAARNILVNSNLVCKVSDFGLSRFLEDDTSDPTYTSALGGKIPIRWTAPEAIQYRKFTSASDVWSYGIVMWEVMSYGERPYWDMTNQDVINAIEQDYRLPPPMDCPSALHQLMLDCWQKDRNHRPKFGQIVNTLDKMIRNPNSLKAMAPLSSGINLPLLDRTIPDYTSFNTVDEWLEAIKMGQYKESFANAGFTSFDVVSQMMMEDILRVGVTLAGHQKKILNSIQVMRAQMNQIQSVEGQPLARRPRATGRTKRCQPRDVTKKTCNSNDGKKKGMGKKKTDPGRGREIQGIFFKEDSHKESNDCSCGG
FGFR3, sequence (P22607 whole entry, looked up): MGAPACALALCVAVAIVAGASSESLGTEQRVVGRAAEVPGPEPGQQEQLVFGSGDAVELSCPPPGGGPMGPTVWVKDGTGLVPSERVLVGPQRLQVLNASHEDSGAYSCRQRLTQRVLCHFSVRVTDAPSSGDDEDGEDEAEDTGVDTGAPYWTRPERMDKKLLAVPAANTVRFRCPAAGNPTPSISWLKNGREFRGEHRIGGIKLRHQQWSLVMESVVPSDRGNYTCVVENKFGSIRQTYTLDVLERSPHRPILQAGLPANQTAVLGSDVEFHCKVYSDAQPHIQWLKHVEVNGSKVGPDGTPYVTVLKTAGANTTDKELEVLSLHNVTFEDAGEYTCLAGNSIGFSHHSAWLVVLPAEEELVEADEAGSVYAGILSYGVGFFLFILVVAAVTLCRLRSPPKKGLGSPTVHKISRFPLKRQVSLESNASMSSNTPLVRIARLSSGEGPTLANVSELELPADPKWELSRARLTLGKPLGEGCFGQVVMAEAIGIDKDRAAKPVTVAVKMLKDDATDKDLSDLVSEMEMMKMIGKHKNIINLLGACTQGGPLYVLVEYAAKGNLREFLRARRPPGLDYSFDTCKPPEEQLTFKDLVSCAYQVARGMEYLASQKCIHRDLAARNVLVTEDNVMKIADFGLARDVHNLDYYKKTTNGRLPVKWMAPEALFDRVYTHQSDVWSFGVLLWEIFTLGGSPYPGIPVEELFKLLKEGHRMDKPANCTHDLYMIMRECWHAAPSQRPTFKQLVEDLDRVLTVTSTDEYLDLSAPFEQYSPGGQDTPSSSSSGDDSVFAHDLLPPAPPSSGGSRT

With LHSEAYLKFIE [PBRM1_Y1610_YF], the phosphorylation enrichment came out at 0.877 in the data set with EPHB1; 1.56 in the data set on AncSZ; 0.486 in the data set on c-Src; 0.881 with EPHB2; 0.813 with Hck; 1.1 in the data set with Fer (mouse). Besides, the phosphorylation enrichment in the data set with MERTK is 0.556; with FGFR1, 0.939; in the data set with c-Abl (mouse), 0.886; in the data set with Fes, 1.51; with FGFR3, 1.21; with Jak2 it was 1.37. Besides, in the data set with Fyn, the phosphorylation enrichment was 0.856. Further, the SH2 binding enrichment in the data set with c-Src SH2 was 0.39; in the data set with SHP2-C SH2 it was 0.881; with Grb2 SH2 it was 0.887.

Turning to RSAGKYDVYLI [MECP2_Y120], the phosphorylation enrichment came to 0.525 with EPHB1; 0.885 with AncSZ; 1.8 with c-Src; 0.77 with EPHB2; 0.878 with Hck; 0.555 in the data set with Fer (mouse). The phosphorylation enrichment came to 0.412 with MERTK; 0.433 in the data set with FGFR1; 0.587 in the data set on c-Abl (mouse); 1.06 with Fes; 0.717 in the data set with FGFR3; 0.987 with Jak2. Further, in the data set with Fyn, the phosphorylation enrichment was 1.31. In addition, the figures for the SH2 binding enrichment in the data set with c-Src SH2, in the data set with SHP2-C SH2 and in the data set with Grb2 SH2 were 0.579, 0.539 and 0.651, respectively.

Regarding TSSAVYMNLAS [GATAD2B_Y317_I316V], the phosphorylation enrichment was 1.67 with EPHB1; 0.759 with AncSZ; 3.04 in the data set with c-Src; 0.65 in the data set with EPHB2; 4.17 in the data set with Hck; 0.818 with Fer (mouse). The phosphorylation enrichment in the data set with MERTK amounted to 3.69; with FGFR1 it was 1.31; in the data set on c-Abl (mouse) it was 0.755; in the data set with Fes, 0.83; in the data set with FGFR3 it was 1.09; with Jak2 it was 0.776. Also, the phosphorylation enrichment in the data set with Fyn amounted to 3.21. Further, the SH2 binding enrichment is 1.88 with c-Src SH2, 1.78 in the data set with SHP2-C SH2 and 7.6 with Grb2 SH2.

As to RKQQLYIAMEE [CCDC39_Y593_T594I], the phosphorylation enrichment with EPHB1 was found to be 0.651; with AncSZ, 0.993; with c-Src, 0.753; in the data set with EPHB2, 0.822; in the data set with Hck, 0.431; with Fer (mouse), 0.607. Further, the phosphorylation enrichment in the data set with MERTK came out at 1; in the data set with FGFR1 it was 0.8; in the data set with c-Abl (mouse), 0.725; with Fes, 1.28; with FGFR3, 0.543; in the data set with Jak2, 0.7. In addition, in the data set with Fyn, the phosphorylation enrichment was 0.655. Also, the figures for the SH2 binding enrichment with c-Src SH2, with SHP2-C SH2 and with Grb2 SH2 were 0.938, 0.909 and 0.916, respectively.

Consider AVEDQYFCVDC [FHL1_Y207_YF], for which the phosphorylation enrichment in the data set with EPHB1 came to 1.17; in the data set with AncSZ it was 2.15; in the data set with c-Src it was 0.703; with EPHB2, 0.862; in the data set with Hck it was 0.791; in the data set on Fer (mouse) it was 0.7. Moreover, the phosphorylation enrichment with MERTK worked out at 0.622; with FGFR1 it was 5.2; with c-Abl (mouse) it was 0.868; in the data set with Fes, 1.64; in the data set with FGFR3, 3.66; with Jak2 it was 1.48. In addition, in the data set with Fyn, the phosphorylation enrichment stood at 0.775. The SH2 binding enrichment in the data set with c-Src SH2 was found to be 0.662; in the data set with SHP2-C SH2 it was 0.736; in the data set with Grb2 SH2 it was 0.849.

On to FRDMDYRSFPH [RBM10_Y41_R46H_YF], for which the phosphorylation enrichment in the data set with EPHB1 worked out at 0.442; in the data set on AncSZ, 0.55; with c-Src, 0.436; in the data set with EPHB2, 0.388; with Hck, 0.314; with Fer (mouse), 0.407. The phosphorylation enrichment with MERTK was 0.385; with FGFR1, 0.577; in the data set with c-Abl (mouse), 0.549; with Fes, 0.698; in the data set with FGFR3, 0.449; with Jak2 it was 0.667. For the same sequence, the phosphorylation enrichment with Fyn was 0.419. Further, the SH2 binding enrichment was determined as 0.565 in the data set with c-Src SH2, 0.787 with SHP2-C SH2 and 0.911 in the data set with Grb2 SH2.

For the sequence NTADFYDLFGG [PTPN11_Y63_G60A_YF], the phosphorylation enrichment with EPHB1 was found to be 0.628; in the data set with AncSZ it was 0.993; with c-Src, 4.45; with EPHB2 it was 0.591; with Hck, 3.02; in the data set with Fer (mouse), 1.6. Besides, the phosphorylation enrichment is 2.3 with MERTK; 0.515 with FGFR1; 0.8 with c-Abl (mouse); 1.12 in the data set with Fes; 0.608 with FGFR3; 1.2 in the data set with Jak2. Further, the phosphorylation enrichment in the data set with Fyn was 4.53. The SH2 binding enrichment in the data set with c-Src SH2 was 0.55; with SHP2-C SH2, 0.785; in the data set with Grb2 SH2, 0.847.

For PLRPDYQEPSR [DDR2_Y481], the phosphorylation enrichment in the data set with EPHB1 was found to be 0.581; with AncSZ, 1.21; in the data set with c-Src, 0.533; in the data set with EPHB2, 0.636; in the data set with Hck, 0.57; in the data set with Fer (mouse), 0.397. In addition, the phosphorylation enrichment is 0.516 in the data set with MERTK; 0.532 with FGFR1; 0.861 with c-Abl (mouse); 1.66 with Fes; 0.768 with FGFR3; 1.02 with Jak2. Moreover, the phosphorylation enrichment with Fyn stood at 0.509. Besides, the SH2 binding enrichment with c-Src SH2 came out at 0.786; with SHP2-C SH2 it was 0.663; in the data set with Grb2 SH2, 1.02.

As for SDQRRYSLIDP [CLIP2_Y972_R977P], the phosphorylation enrichment was found to be 0.56 in the data set with EPHB1; 0.683 with AncSZ; 0.383 with c-Src; 0.567 with EPHB2; 0.466 with Hck; 0.545 in the data set on Fer (mouse). Besides, the phosphorylation enrichment is 1.3 with MERTK; 0.533 with FGFR1; 0.488 in the data set with c-Abl (mouse); 0.719 with Fes; 0.64 with FGFR3; 0.587 with Jak2. The phosphorylation enrichment in the data set with Fyn is 0.574. Also, the values for the SH2 binding enrichment with c-Src SH2, with SHP2-C SH2 and in the data set with Grb2 SH2 were 15.9, 3.82 and 0.889, respectively.
